B1: MYBL2 (parent)
chain: VKKSCWTEEEDRIICEAHKVLGNR
B2: PLD5 (parent)
chain: VTYMNMTAYNKGRLQSSFWIVDKQ

Variants of: B1
Assay: protein stability index of a GFP-peptide fusion (GPS, HEK-293T) (PSI 1-6); higher = more stable
Settings: c terminus: a fixed tail appended
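Note: lentivirally expressed fusions sorted by FACS into six bins by GFP to DsRed ratio, PSI derived from sequencing read proportions per bin multiplied by bin number.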

Protein stability index of substitutions, site by site:
S4: W 1.98; L 3.33; D 3.58; E 3.82; V 3.41; K 3.49; F 2.83; Y 2.27; R 3; P 3.49; M 3.06; A 3.31; I 3.21; C 2.53; Q 3.17; H 2.77; N 3.51; T 2.97; G 3.53
W6: M 3.99; K 4.05; I 3.7; C 4.48; F 3.54; L 3.85; N 4.17; G 3.97; H 3.07; E 4.7; D 4.33; A 3.92
K3: I 2.4; G 3.38; E 4.1; L 2.49; T 2.76; Q 3.27; S 3.12; D 3.54; A 3.43; M 2.78; Y 2.76; P 3.14; F 2.69; N 2.78; R 3.3; C 2.39; V 2.52; W 2.21; H 3.26
K2: A 3.28; V 2.76; N 3.43; W 2.3; G 3.46; T 2.97; F 2.86; R 3.54; H 3.25; L 2.98; I 2.89; D 4.25; P 3.47; M 2.92; E 3.19; C 2.31; S 3.8; Y 3.35; Q 3.6
V1: T 3.78; L 3.02; F 2.87; Y 2.71; P 3.66; H 3.69; C 3.04; A 3.19; N 3.33; R 3.9; D 3.35; S 3.35; I 3.23; G 3.32; M 3.32; K 3.34; E 3.07; Q 3.23; W 3.12
C5: A 3.47; I 3.24; K 3.53; R 3.88; W 2.73; F 3.22; Y 3.47; N 3.38; H 3.63; M 3; P 3.69; Q 4.21; D 3.77; L 2.01; V 3.31; G 3.75; S 4.1; T 3.79; E 4.19

Variants of: B2
Assay: as above
Settings: c terminus: a fixed tail appended

Protein stability index: each site, then its substitutions
F18: K 1.8; W 1.24; R 1.82; E 2.2; S 2.07; Y 1.8; G 2.31; M 2.26; C 2.26; L 2.32; P 2.02; H 1.48; N 1.67; A 2.89; Q 1.8; T 1.74; D 2.07; V 2.57
S17: Y 3.31; M 4.26; T 1.43; L 1.12; P 2.33; N 1.49; G 1.73; H 1.93; K 2.12; C 2.28; R 3.71; A 2.28; D 2.15
G12: C 1.53; H 1.15; Q 1.37; T 1.8; K 2.31; M 2.18; Y 2.49; L 4.29; D 3.02; V 1.91; F 3.77; R 1.58; A 1.89; S 2.38; E 1.8
I20: E 2.23; P 1.7; K 2.27; R 1.51; M 3.68; T 1.4; Y 2.98; C 1.76; H 2.41; S 2.09; Q 1.97; G 1.25; W 2.26; L 1.22
